Assay results as given in patent US20190085054A1 (Amgen, published 2019).

Key:
Experiment in all cases: cell-based or functional assay
[1] = molecular target: T1, catalytic domain of human MMP9 (human, UniProt P14780 107-444, limits assumed)
[2] = molecular target: T2, human MMP2 (pro-MMP2 activated with APMA) (human, UniProt P08253 30-660)
T2 sequence (looked up): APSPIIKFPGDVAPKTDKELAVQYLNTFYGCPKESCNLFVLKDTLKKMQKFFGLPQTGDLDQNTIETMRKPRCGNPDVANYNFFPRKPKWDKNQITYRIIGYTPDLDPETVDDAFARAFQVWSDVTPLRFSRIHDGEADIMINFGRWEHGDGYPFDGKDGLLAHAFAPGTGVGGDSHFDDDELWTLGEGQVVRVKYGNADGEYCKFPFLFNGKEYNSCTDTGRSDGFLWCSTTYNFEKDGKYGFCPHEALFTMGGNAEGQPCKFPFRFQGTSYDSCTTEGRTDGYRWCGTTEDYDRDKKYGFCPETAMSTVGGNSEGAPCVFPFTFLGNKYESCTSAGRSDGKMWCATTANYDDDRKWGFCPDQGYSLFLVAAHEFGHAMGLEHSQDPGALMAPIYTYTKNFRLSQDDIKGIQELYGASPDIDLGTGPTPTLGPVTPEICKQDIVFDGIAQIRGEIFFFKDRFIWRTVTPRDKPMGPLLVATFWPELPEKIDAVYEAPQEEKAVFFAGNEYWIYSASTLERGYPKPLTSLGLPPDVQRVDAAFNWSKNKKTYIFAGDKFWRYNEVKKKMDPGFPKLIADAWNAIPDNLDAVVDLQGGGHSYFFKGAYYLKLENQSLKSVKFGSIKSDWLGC

[3] = molecular target: active MMP13 (UniProt P45452 20-471, limits assumed)
[4] = molecular target: T1, catalytic domain of human MMP9; remark: listed apart in the source
[5] = molecular target: T2, human MMP2 (pro-MMP2 activated with …); remark: listed apart in the source

T1 sequence (P14780 107-444 limits assumed): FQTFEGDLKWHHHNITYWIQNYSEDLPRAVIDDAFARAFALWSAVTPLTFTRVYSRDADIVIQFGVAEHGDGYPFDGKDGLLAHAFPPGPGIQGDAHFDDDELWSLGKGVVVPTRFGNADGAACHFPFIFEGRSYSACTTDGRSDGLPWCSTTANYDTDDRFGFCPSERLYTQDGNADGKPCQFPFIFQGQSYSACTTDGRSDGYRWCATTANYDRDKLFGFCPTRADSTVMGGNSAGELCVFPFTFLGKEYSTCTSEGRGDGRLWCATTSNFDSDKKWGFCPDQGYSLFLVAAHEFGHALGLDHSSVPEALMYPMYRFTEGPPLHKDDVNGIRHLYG

Binder	MMP9 IC50 [1]	MMP2 IC50 [2]	MMP13 IC50 [3]	MMP9 Inhibition Shift [4]	MMP2 Inhibition Shift [5]
wild-type TIMP-3 (native human tissue inhibitor of metalloproteinase 3) (other) CTCSPSHPQDAFCNSDIVIRAKVVGKKLVKEGPFGTLVYTIKQMKMYRGFTKMPHVQYIHTEASESLCGLKLEVNKYQYLLTGRVYDGKMYTGLCNFVERWDQLTLSQRKGLNYRYHLGCNCKIKSCYYLPCFVTSKNECLWTDMLSNFGYPGYQSKHYACIRQKGGYCSWYRGWAPPDKSIINATDP	1 nM	0.6 nM	0.9 nM		
TIMP-3 mutein K45N, V47T, F57N, K75N, P77T, K94N, E96T, R138T, G173T (other) CTCSPSHPQDAFCNSDIVIRANVTGKKLVKEGPNGTLVYTIKQMKMYRGFTNMTHVQYIHTEASESLCGLNLTVNKYQYLLTGRVYDGKMYTGLCNFVERWDQLTLSQRKGLNYTYHLGCNCKIKSCYYLPCFVTSKNECLWTDMLSNFTYPGYQSKHYACIRQKGGYCSWYRGWAPPDKSIINATDP				25 fold	7 fold
TIMP-3 mutein K45S, F57N, K94N, E96T, D110N, K112T, R138T, G173T (other) CTCSPSHPQDAFCNSDIVIRASVVGKKLVKEGPNGTLVYTIKQMKMYRGFTKMPHVQYIHTEASESLCGLNLTVNKYQYLLTGRVYNGTMYTGLCNFVERWDQLTLSQRKGLNYTYHLGCNCKIKSCYYLPCFVTSKNECLWTDMLSNFTYPGYQSKHYACIRQKGGYCSWYRGWAPPDKSIINATDP				24 fold	6 fold
TIMP-3 mutein K45N, V47T, F57N, K94N, E96T, D110N, K112T, G173T, R186Q, K188Q (other) CTCSPSHPQDAFCNSDIVIRANVTGKKLVKEGPNGTLVYTIKQMKMYRGFTKMPHVQYIHTEASESLCGLNLTVNKYQYLLTGRVYNGTMYTGLCNFVERWDQLTLSQRKGLNYRYHLGCNCKIKSCYYLPCFVTSKNECLWTDMLSNFTYPGYQSKHYACIQQQGGYCSWYRGWAPPDKSIINATDP				12 fold	3 fold
TIMP-3 mutein K45E, K49E, F57N, K94N, E96T, D110N, K112T, G173T, R186N, K188T (other) CTCSPSHPQDAFCNSDIVIRAEVVGEKLVKEGPNGTLVYTIKQMKMYRGFTKMPHVQYIHTEASESLCGLNLTVNKYQYLLTGRVYNGTMYTGLCNFVERWDQLTLSQRKGLNYRYHLGCNCKIKSCYYLPCFVTSKNECLWTDMLSNFTYPGYQSKHYACINQTGGYCSWYRGWAPPDKSIINATDP				5 fold	1 fold
TIMP-3 mutein K50N, V52T, K94N, E96T, R138T, G173T (other) CTCSPSHPQDAFCNSDIVIRAKVVGKNLTKEGPFGTLVYTIKQMKMYRGFTKMPHVQYIHTEASESLCGLNLTVNKYQYLLTGRVYDGKMYTGLCNFVERWDQLTLSQRKGLNYTYHLGCNCKIKSCYYLPCFVTSKNECLWTDMLSNFTYPGYQSKHYACIRQKGGYCSWYRGWAPPDKSIINATDP				1 fold	2 fold
TIMP-3 mutein K45S, F57N, T63N, K65T, K94N, E96T, R138T, G173T (other) CTCSPSHPQDAFCNSDIVIRASVVGKKLVKEGPNGTLVYNITQMKMYRGFTKMPHVQYIHTEASESLCGLNLTVNKYQYLLTGRVYDGKMYTGLCNFVERWDQLTLSQRKGLNYTYHLGCNCKIKSCYYLPCFVTSKNECLWTDMLSNFTYPGYQSKHYACIRQKGGYCSWYRGWAPPDKSIINATDP				16 fold	8 fold
TIMP-3 mutein K50N, V52T, F57N, K94N, E96T, R138T, G173T (other) CTCSPSHPQDAFCNSDIVIRAKVVGKNLTKEGPNGTLVYTIKQMKMYRGFTKMPHVQYIHTEASESLCGLNLTVNKYQYLLTGRVYDGKMYTGLCNFVERWDQLTLSQRKGLNYTYHLGCNCKIKSCYYLPCFVTSKNECLWTDMLSNFTYPGYQSKHYACIRQKGGYCSWYRGWAPPDKSIINATDP				91 fold	2 fold
TIMP-3 mutein K45E, F57N, Q126N, R138T, G173T (other) CTCSPSHPQDAFCNSDIVIRAEVVGKKLVKEGPNGTLVYTIKQMKMYRGFTKMPHVQYIHTEASESLCGLKLEVNKYQYLLTGRVYDGKMYTGLCNFVERWDNLTLSQRKGLNYTYHLGCNCKIKSCYYLPCFVTSKNECLWTDMLSNFTYPGYQSKHYACIRQKGGYCSWYRGWAPPDKSIINATDP				8 fold	4 fold
TIMP-3 mutein K45E, F57N, K94N, E96T, D110N, K112T, R138T (other) CTCSPSHPQDAFCNSDIVIRAEVVGKKLVKEGPNGTLVYTIKQMKMYRGFTKMPHVQYIHTEASESLCGLNLTVNKYQYLLTGRVYNGTMYTGLCNFVERWDQLTLSQRKGLNYTYHLGCNCKIKSCYYLPCFVTSKNECLWTDMLSNFGYPGYQSKHYACIRQKGGYCSWYRGWAPPDKSIINATDP				128 fold	1 fold
TIMP-3 mutein K45S, F57N, H78N, Q80T, K94N, E96T, R138T, G173T (other) CTCSPSHPQDAFCNSDIVIRASVVGKKLVKEGPNGTLVYTIKQMKMYRGFTKMPNVTYIHTEASESLCGLNLTVNKYQYLLTGRVYDGKMYTGLCNFVERWDQLTLSQRKGLNYTYHLGCNCKIKSCYYLPCFVTSKNECLWTDMLSNFTYPGYQSKHYACIRQKGGYCSWYRGWAPPDKSIINATDP				18 fold	5 fold
TIMP-3 mutein K45N, V47T, F57N, V97N, K99T, R138T, G173T (other) CTCSPSHPQDAFCNSDIVIRANVTGKKLVKEGPNGTLVYTIKQMKMYRGFTKMPHVQYIHTEASESLCGLKLENNTYQYLLTGRVYDGKMYTGLCNFVERWDQLTLSQRKGLNYTYHLGCNCKIKSCYYLPCFVTSKNECLWTDMLSNFTYPGYQSKHYACIRQKGGYCSWYRGWAPPDKSIINATDP				8 fold	6 fold
TIMP-3 mutein K50N, V52T, F57N, K94N, E96T, D110N, K112T, R138T (other) CTCSPSHPQDAFCNSDIVIRAKVVGKNLTKEGPNGTLVYTIKQMKMYRGFTKMPHVQYIHTEASESLCGLNLTVNKYQYLLTGRVYNGTMYTGLCNFVERWDQLTLSQRKGLNYTYHLGCNCKIKSCYYLPCFVTSKNECLWTDMLSNFGYPGYQSKHYACIRQKGGYCSWYRGWAPPDKSIINATDP				70 fold	1 fold
TIMP-3 mutein K45N, V47T, F57N, K94N, E96T, D110N, K112T, R186N, K188T (other) CTCSPSHPQDAFCNSDIVIRANVTGKKLVKEGPNGTLVYTIKQMKMYRGFTKMPHVQYIHTEASESLCGLNLTVNKYQYLLTGRVYNGTMYTGLCNFVERWDQLTLSQRKGLNYRYHLGCNCKIKSCYYLPCFVTSKNECLWTDMLSNFGYPGYQSKHYACINQTGGYCSWYRGWAPPDKSIINATDP				8 fold	3 fold
TIMP-3 mutein K45N, V47T, F57N, K94N, E96T, R138T, G173T (other) CTCSPSHPQDAFCNSDIVIRANVTGKKLVKEGPNGTLVYTIKQMKMYRGFTKMPHVQYIHTEASESLCGLNLTVNKYQYLLTGRVYDGKMYTGLCNFVERWDQLTLSQRKGLNYTYHLGCNCKIKSCYYLPCFVTSKNECLWTDMLSNFTYPGYQSKHYACIRQKGGYCSWYRGWAPPDKSIINATDP				15 fold	5 fold
TIMP-3 mutein K45E, K50N, V52T, K94N, E96T, D110N, K112T, R138T, G173T (other) CTCSPSHPQDAFCNSDIVIRAEVVGKNLTKEGPFGTLVYTIKQMKMYRGFTKMPHVQYIHTEASESLCGLNLTVNKYQYLLTGRVYNGTMYTGLCNFVERWDQLTLSQRKGLNYTYHLGCNCKIKSCYYLPCFVTSKNECLWTDMLSNFTYPGYQSKHYACIRQKGGYCSWYRGWAPPDKSIINATDP				1 fold	2 fold
TIMP-3 mutein K45S, F57N, T63N, K65T, K94N, E96T, G173T (other) CTCSPSHPQDAFCNSDIVIRASVVGKKLVKEGPNGTLVYNITQMKMYRGFTKMPHVQYIHTEASESLCGLNLTVNKYQYLLTGRVYDGKMYTGLCNFVERWDQLTLSQRKGLNYRYHLGCNCKIKSCYYLPCFVTSKNECLWTDMLSNFTYPGYQSKHYACIRQKGGYCSWYRGWAPPDKSIINATDP				16 fold	2 fold
